For test [1], the target named is SARS-COV-2 spike [change] trimer ([change]-foldon-His-Strep) (SARS-CoV-2 (Wuhan)) (UniProt P0DTC2).
Test [2] concerns the target spike protein of authentic SARS-COV-2 Omicron BA.2 virus (SARS-CoV-2 Omicron BA.2). Description: cell-based or functional assay.
Test [3] concerns the target spike protein of authentic SARS-COV-2 614G virus (SARS-CoV-2 614G) (UniProt P0DTC2). The experiment in a line: cell-based or functional assay.
For test [4], the target named is spike protein of authentic SARS-COV-2 Omicron BA.1 virus (SARS-CoV-2 Omicron BA.1). The experiment in a line: cell-based or functional assay.
Test [5] deals with spike protein of authentic SARS-COV-2 Omicron BA.5 virus (SARS-CoV-2 Omicron BA.5). The experiment in a line: cell-based or functional assay.
In test [6] the target is spike protein of authentic SARS-COV-2 Delta virus (SARS-CoV-2 Delta). The experiment in a line: cell-based or functional assay.

In turn, CB6 monoclonal antibody gave an IC50 (read off the curve) in test [1] of 0.05 µg/mL.
As for “sotrovimab Biosimilar (PX-TA1637) (antibody)”, the GM IC50 in ng/mL (GSD factor), live virus microneutralisation in test [2] was 7150 ng/mL; in test [3], 205 ng/mL; in test [4], 1100 ng/mL; in test [5], above 10000 ng/mL; in test [6] it was 141 ng/mL.
For “cilgavimab Biosimilar (PX-TA1033) (antibody)”, the GM IC50 in ng/mL (GSD factor), live virus microneutralisation in test [2] came to 21.2 ng/mL; in test [3] it was 30.9 ng/mL; in test [4] it was 156 ng/mL; in test [6] it was 28.8 ng/mL.
On to “Bebtelovimab Biosimilar (PX-TA1750) (antibody)”, for which the GM IC50 in ng/mL (GSD factor), live virus microneutralisation stood at 1.7 ng/mL in test [2]; 3.8 ng/mL in test [3]; 2.5 ng/mL in test [4]; 2.4 ng/mL in test [5]; 1.6 ng/mL in test [6].

Values taken from patent US20250313611A1.
